# Experimental data: patent US20120149645A1, “COMPOSITIONS AND MODULATION OF MYOCYTE ENHANCER FACTOR 2 (MEF2)” (EMORY UNIVERSITY, priority 2010, published 2012)
# B1: Mt2Ddn: Mitochondria-targeting dominant-negative MEF2D: mouse MEF2D 1-131aa with mitochondria-targeting signal, lacks the transactivation domain (protein, UniProt Q63943 1-131, looked up, fragment)
# chain: MGRKKIQIQRITDERNRQVTFTKRKFGLMKKAYELSVLCDCEIALIIFNHSNKLFQYASTDMDKVLLKYTEYNEPHESRTNADIIETLRKKGFNGCDSPEPDGEDSLEQSPLLEDKYRRASEELDGLFRRY
# modifications: mitochondria-targeting signal added
# Experiments:
# [1] = test system: human mtDNA fragment containing mitochondrial L-strand promoter (LSP) and ND6 gene; assay: In vitro mtDNA L-strand transcription assay; format: biochemical
# Description: (§1) (A) Mitochondria-targeting MEF2D (Mt2D) and mitochondria-targeting dominant-negative MEF2D (Mt2Ddn), which lacks the transactivation domain (TAD). […] Control indicates the control vector group. (C) Effects of Mt2D or Mt2Ddn on ND6 expression in SN4741 cells. Over-expression of Mt2Ddn in SN4741 cells reduced ND6 but not PPAR-γ coactivator 1 (PGC1) expression by western blotting (n=4, **p<0.01). Control indicates the control vector group. (D) Effects of over-expression of Mt2D or Mt2Ddn on mRNA levels of mitochondria encoded genes. […] Control indicates the control vector group. (E) Effects of Mt2D or Mt2Ddn on mtDNA L-strand transcription initiation in vitro (n=3; **P<0.01). A human mtDNA fragment containing mitochondrial L-strand promoter (LSP) and ND6 gene was used in the in vitro transcription assay. […] (F) Effects of Mt2D or Mt2Ddn on mtDNA de novo transcription in vivo (n=3; **P<0.01). Control (−) is without primers. Control (+) indicates the control vector group.
# SN4741 cells [2] = assay: Subcellular localization of over-expressed MEF2D constructs; format: cell-based, mouse; conditions: over-expressed in SN4741 cells
# Description: (A) Lack of mitochondrial localization by ΔN30MEF2D. […] VDAC, PARP and c-Raf are Mt, Nu and Cy markers, respectively. Control indicates the control vector group. (B) Immunocytochemistry analysis of mitochondrial localization of transfected Flag-MEF2D. […] Experiments were repeated four times. (C, D) Requirement of mtHsp70 for mitochondria-targeting of MEF2D (n=4; **p<0.01). Control indicates untreated. […]. Knocking down mouse mtHsp70 by siRNA reduced MEF2D level in purified mitochondria from SN4741 cells (C). […] MnSOD is a known mtHsp70-imported mitochondrial matrix protein.
# (A) Diagrams of Mt2DVP16 and MtND6. Mt2DVP16 was constructed by fusion of transactivation domain (TAD) of VP16 with DNA-binding domain of MEF2D and a mitochondria-targeting sequence (Mito). […] (C) Over-expression of Mt2DVP16 attenuated MEF2D siRNA-induced reduction of ND6 expression (n=3, **P<0.01).
# (§2) Control indicates the group co-tranfected with control vector.
# SN4741 cells or primary midbrain DA neurons were plated on glass slides in 24-well plates. Localizations of endogenous and exogenous MEF2D were visualized on a Zeiss LSM5 PASCAL confocal microscope. […] Quantification of colocalization of signals was done using “Colocalization Analysis” program of software Image Pro (Media Cybernetics). […]
# ND6 mRNA = assay: Real-time PCR of mitochondria-encoded mRNA levels in SN4741 cells; format: cell-based, mouse; conditions: construct over-expressed in SN4741 cells
# Description: as §1
# SN4741 cells [3] = assay: PI (propidium iodide) staining of cell death; format: cell-based, mouse; conditions: SN4741 cells infected with lentivirus 24 hours, then MPP+ 5 μM for 24 hours
# Protocol: (A) SN4741 cells were infected with lentiviruses for 24 hours and followed by exposure to MPP+ (5 μM) for 24 hours. Cell death was analyzed by PI (propidium iodide) staining (n=4; scale bar, 30 μm). The control indicated the control vector. (B) Quantification of the number of PI positive cells in (A) (n=50 cells, **P<0.01). Experiments were repeated four times. Control indicates the group transfected with the control vector.
# nuclear MEF2 = assay: MEF2 luciferase reporter assay; format: cell-based; conditions: co-transfected with MEF2 luciferase reporter
# Description: as §2
# MEF2 luciferase reporter assay was done as described Wang et al., J Biol Chem, 2005, 280:16705-16713. Briefly, cells were transiently transfected with various constructs with MEF2 luciferase reporter plasmid (WT, reporter with wild type MEF2 DNA binding sites; mt, reporter with the MEF2 DNA binding sites mutated) using Lipofectimane 2000 (Invitrogen) following procedures provided by the manufacturer. A β-galactosidase expression plasmid was used to determine the efficiency in each transfection. The total amount of DNA for each transfection was kept constant by using control vectors. Cell lysates were analyzed for luciferase and β-galactosidase activity according to the manufacturer's instructions (Roche, cat. no. 11669893001).
# ND6 = assay: In organello de novo transcription assay; format: cell-based, mouse; conditions: mitochondria isolated from SN4741 cells infected with lentivirus for 24 hour
# Description: as §1
# SN4741 cells were infected with Mt2D or Mt2Ddn lentiviruses for 24 hour. De novo transcription was measured in isolated mitochondria as described previously (46, 47). The mitochondrial fraction was suspended in transcription buffer containing 25 mM sucrose, 75 mM sorbitol, 100 mM KCl, 10 mM K2HPO4, 50 mM EDTA, 5 mM MgCl2, 1 mM ADP, 10 mM glutamate, 2.5 mM malate, and 10 mM Tris-HCl (pH7.4), with 1 mg of BSA per ml. […]
molecule,measurement,setting,value
B1,level of L-strand promoter (LSP) transcripts,[1],reduces
same,mitochondrial localization by immunocytochemical staining (MitoTracker),SN4741 cells [2],targeted exclusively to mitochondria
same,ND6 mRNA level,ND6 mRNA,clearly reduced
same,mRNA levels of other mitochondria-encoded proteins,ND6 mRNA,little effect
same,number of propidium iodide (PI) positive cells,SN4741 cells [3],increases
same,nuclear MEF2 activity (MEF2 reporter),nuclear MEF2,did not affect
same,de novo transcription of ND6,ND6,reduced
